± gives the uncertainty stated by the source.
Assay: self-splicing fitness, log relative to wild type (ln ratio); higher = more splicing; Tetrahymena group I intron in knt gene, E. coli kanamycin selection, DiMSum; sequences stand for … in CUCUCU…GGAGGGAAAAGUUAUCAGGCAUGCACCUGGUAGCUAGUCUUUAAACCAAUAGAUUGCAUCGGUUUAAAAGGCAAGACCGUCAAAUUGCGGGAAAGGGGUCAACAGCCGUUCAGUACCAAGUCUCAGGGGAAACUUUGAGAUGGCCUUGCAAAGGGUAUGGUAAUAAGCUGACGGACAUGGUCCUAACCACGCAGCCAAGUCCUAAGUCAACAGAUCUUCUGUUGAUAUGGAUGCAGUUCACAGACUAAAUGUCGGUCGGGGAAGAUGUAUUCUUCUCAUAAGAUAUAGUCGGACCUCUCCUUAAUGGGAGCUAGCGGAUGAAGUGAUGCAACACUGGAGCCGCUGGGAACUAAUUUGUAUGCGAAAGUAUAUUGAUUAGUUUUGGAGUACUCGUGGUCG
Outline: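 A randomised library covering all eight P1ex-region intron nucleotides was built with the intron in the knt kanamycin-resistance gene on pET-22b(+) and held in E. coli BL21(DE3). Cells were grown overnight at 37°C or 30°C on LB agar, with or without 25 μg/mL kanamycin, plus 100 μg/mL carbenicillin, 50 μM IPTG and 0.2% rhamnose, and pooled colonies were amplicon-sequenced on an Illumina HiSeq 2500. DiMSum fitness is the error-weighted combination of wild-type-normalised replicate fold changes, kanamycin versus none.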

Sequence | self-splicing fitness (ln) (30 °C) | self-splicing fitness (ln) (37 °C)
CGUGAGCAAUAUUACGGAUG | -1.55 ± 0.075 | -0.983 ± 0.094
CUUGAGCAAUAUUACGGUGG | -2.55 ± 0.13 | -1.52 ± 0.12
UGUCAGCAAUAUUACGCUUA | -0.0584 ± 0.077 | 0.408 ± 0.11
GACUAGCAAUAUUACGCAUA | -0.568 ± 0.1 | -0.145 ± 0.096
ACAGAGCAAUAUUACGAAAG | -3.24 ± 0.19 | -1.46 ± 0.16
AUGUAGCAAUAUUACGGUUC | -1.72 ± 0.099 | -1.29 ± 0.12
UUUGAGCAAUAUUACGAAUU | -2.47 ± 0.23 | -2.01 ± 0.3
GUCAAGCAAUAUUACGUCGA | -3.6 ± 0.42 | -4.19 ± 0.46
ACUGAGCAAUAUUACGACGG | -1.08 ± 0.1 | -0.161 ± 0.13
UCCCAGCAAUAUUACGGCAA | -0.595 ± 0.1 | 0.128 ± 0.11
ACUGAGCAAUAUUACGAGUA | – | -1.6 ± 0.2
CAUGAGCAAUAUUACGCCAU | -3.43 ± 0.3 | –
GCUUAGCAAUAUUACGGAUA | -2.7 ± 0.39 | -1.71 ± 0.31
ACGGAGCAAUAUUACGUAUU | -3.44 ± 0.48 | –
AGCCAGCAAUAUUACGAGUU | -1.84 ± 0.086 | -0.293 ± 0.081
UGUCAGCAAUAUUACGGCCG | -0.69 ± 0.14 | -0.658 ± 0.17
CACAAGCAAUAUUACGAUCU | -2.56 ± 0.09 | -2.85 ± 0.13
GGUUAGCAAUAUUACGUCUG | -2.1 ± 0.14 | -0.405 ± 0.11
UUACAGCAAUAUUACGGCGA | -0.0852 ± 0.081 | 0.489 ± 0.11
GAGGAGCAAUAUUACGUGCC | -3.24 ± 0.26 | -2.41 ± 0.28
CUUAAGCAAUAUUACGUGCU | -2.16 ± 0.24 | -2.1 ± 0.18
GUCCAGCAAUAUUACGCUUG | -1.57 ± 0.079 | -1.31 ± 0.09
AAAUAGCAAUAUUACGAACU | 1.11 ± 0.17 | -0.182 ± 0.16
AAUUAGCAAUAUUACGCCAU | -2.49 ± 0.19 | -1.04 ± 0.16
UCUUAGCAAUAUUACGCGGU | -3.5 ± 0.2 | -2.76 ± 0.26

Sequence | self-splicing fitness (ln) (30 °C) | self-splicing fitness (ln) (37 °C)
GGAUAGCAAUAUUACGCAUC | – | -1.63 ± 0.38
AACUAGCAAUAUUACGGCCA | -0.0639 ± 0.1 | -0.69 ± 0.1
GUUCAGCAAUAUUACGCGCU | -2.34 ± 0.18 | -1.13 ± 0.13
CUUGAGCAAUAUUACGUCCA | -3.91 ± 0.39 | -2.55 ± 0.41
CAUUAGCAAUAUUACGGGAC | -3.64 ± 0.27 | -2.31 ± 0.25
GGCUAGCAAUAUUACGCCUA | -0.205 ± 0.23 | -1.69 ± 0.3
GUGCAGCAAUAUUACGCCAG | -2.82 ± 0.47 | –
AAGUAGCAAUAUUACGAAUU | -1.94 ± 0.12 | -0.748 ± 0.15
AAUUAGCAAUAUUACGCAUA | -1.59 ± 0.15 | -2.07 ± 0.15
AGUCAGCAAUAUUACGUGCG | -0.277 ± 0.078 | -0.317 ± 0.088
CCGAAGCAAUAUUACGGUCA | -3.56 ± 0.2 | -2.55 ± 0.18
CGUAAGCAAUAUUACGACAG | -0.247 ± 0.11 | -0.867 ± 0.14
UUAAAGCAAUAUUACGGGCC | -1.7 ± 0.21 | -1.25 ± 0.28
AAGAAGCAAUAUUACGACAU | -0.0917 ± 0.012 | -0.0361 ± 0.032
AAAAAGCAAUAUUACGAACC | -1.53 ± 0.12 | -0.312 ± 0.18
UCUCAGCAAUAUUACGAGGG | -2.87 ± 0.11 | -1.31 ± 0.12
CAUGAGCAAUAUUACGGAUC | – | -2.94 ± 0.33
AAAGAGCAAUAUUACGUGGC | -2.86 ± 0.23 | –
UUUAAGCAAUAUUACGAAAA | -0.789 ± 0.19 | -1.33 ± 0.2
AAUAAGCAAUAUUACGUCGA | -1.38 ± 0.099 | -0.488 ± 0.12
GACAAGCAAUAUUACGAUCG | -0.776 ± 0.086 | -0.39 ± 0.11
GAGGAGCAAUAUUACGGGAG | -4.37 ± 0.29 | -3.63 ± 0.35
AAUAAGCAAUAUUACGUAAU | -1.38 ± 0.1 | -0.587 ± 0.13
AGGUAGCAAUAUUACGCCUG | -0.743 ± 0.017 | -0.212 ± 0.035
AUUUAGCAAUAUUACGUCCG | -1.76 ± 0.18 | -0.728 ± 0.22
